Reference: PMC9481161

Molecular target: His6-MglB (Myxococcus xanthus) (UniProt Q1DB03)
Chain of UniProt Q1DB03 (Q1DB03 entry or part of it): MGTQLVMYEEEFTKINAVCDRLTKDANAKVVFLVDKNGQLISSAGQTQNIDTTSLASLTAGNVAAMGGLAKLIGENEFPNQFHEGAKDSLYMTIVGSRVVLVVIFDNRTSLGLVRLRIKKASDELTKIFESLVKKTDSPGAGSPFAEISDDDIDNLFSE

MglA GTPase activity, malachite green-based assay; 3 μM MglA-His6 mixed 1:2:2 with MglB and Strep-RomY (against ~18 with MglB alone): 31 GTP/MglA/hr | MglA GTPase activity, regenerative coupled enzyme assay; 3 μM MglA-His6 mixed 1:2:2 with MglB and Strep-RomY (against ~12 with MglB alone): 25 GTP/MglA/hr
Substance: Strep-RomY (natural protein)
